Data reported in patent US20180305451A1.

How the values were obtained:
[1] = molecular target: putative molecular counterpart of HIDE1 on T cells; assay: FACS, tetramer on CD4+ T cells activated for 72 h
[2] = molecular target: putative molecular counterpart of HIDE1 on T cells; assay: flow cytometry on H9 human T cell line, live singlets; PE tetramer at 3 µg/well (60 µg/ml)
[3] = molecular target: putative molecular counterpart of HIDE1 on T cells; assay: flow cytometry on U937 human myeloid cell line, live singlets; PE tetramer at 3 µg/well (60 µg/ml); the text calls this no binding; Tetramer-EGFR in the same box reads 79.6
[4] = molecular target: putative molecular counterpart of HIDE1 on T cells; assay: flow cytometry on H9 human T cell line, live singlets; negative control PE tetramer at 3 µg/well (60 µg/ml)

Substance | fold increase in the Geo Mean compared to EGFR negative control [1] [fold] | Geometric Mean (B2-A) [2] | Geometric Mean (B2-A) [3] | Geometric Mean (B2-A) [4]
HIDE1 tetramer (from UniProt A8MVS5 20-117) | 3 | 731 | 86.2 | –
Tetramer-EGFR (from UniProt P00533) | – | – | – | 82.1
